Laboratory results published in publication PMC2216138 (The Journal of General Physiology, 1988).
Where two headings read alike, the source gives them in different places.

Legend:
[1] = biological target: T1, High-conductance, Ca2+-activated K+ channel from rat skeletal muscle (rat (endogenous in skeletal muscle), UniProt Q62976 1-1209); assay: single-channel recording in planar lipid bilayers
[2] = biological target: T1, High-conductance, Ca2+-activated K+ …; assay: single-channel recording in planar lipid bilayers; remark: listed apart in the source

T1 sequence (Q62976 whole entry): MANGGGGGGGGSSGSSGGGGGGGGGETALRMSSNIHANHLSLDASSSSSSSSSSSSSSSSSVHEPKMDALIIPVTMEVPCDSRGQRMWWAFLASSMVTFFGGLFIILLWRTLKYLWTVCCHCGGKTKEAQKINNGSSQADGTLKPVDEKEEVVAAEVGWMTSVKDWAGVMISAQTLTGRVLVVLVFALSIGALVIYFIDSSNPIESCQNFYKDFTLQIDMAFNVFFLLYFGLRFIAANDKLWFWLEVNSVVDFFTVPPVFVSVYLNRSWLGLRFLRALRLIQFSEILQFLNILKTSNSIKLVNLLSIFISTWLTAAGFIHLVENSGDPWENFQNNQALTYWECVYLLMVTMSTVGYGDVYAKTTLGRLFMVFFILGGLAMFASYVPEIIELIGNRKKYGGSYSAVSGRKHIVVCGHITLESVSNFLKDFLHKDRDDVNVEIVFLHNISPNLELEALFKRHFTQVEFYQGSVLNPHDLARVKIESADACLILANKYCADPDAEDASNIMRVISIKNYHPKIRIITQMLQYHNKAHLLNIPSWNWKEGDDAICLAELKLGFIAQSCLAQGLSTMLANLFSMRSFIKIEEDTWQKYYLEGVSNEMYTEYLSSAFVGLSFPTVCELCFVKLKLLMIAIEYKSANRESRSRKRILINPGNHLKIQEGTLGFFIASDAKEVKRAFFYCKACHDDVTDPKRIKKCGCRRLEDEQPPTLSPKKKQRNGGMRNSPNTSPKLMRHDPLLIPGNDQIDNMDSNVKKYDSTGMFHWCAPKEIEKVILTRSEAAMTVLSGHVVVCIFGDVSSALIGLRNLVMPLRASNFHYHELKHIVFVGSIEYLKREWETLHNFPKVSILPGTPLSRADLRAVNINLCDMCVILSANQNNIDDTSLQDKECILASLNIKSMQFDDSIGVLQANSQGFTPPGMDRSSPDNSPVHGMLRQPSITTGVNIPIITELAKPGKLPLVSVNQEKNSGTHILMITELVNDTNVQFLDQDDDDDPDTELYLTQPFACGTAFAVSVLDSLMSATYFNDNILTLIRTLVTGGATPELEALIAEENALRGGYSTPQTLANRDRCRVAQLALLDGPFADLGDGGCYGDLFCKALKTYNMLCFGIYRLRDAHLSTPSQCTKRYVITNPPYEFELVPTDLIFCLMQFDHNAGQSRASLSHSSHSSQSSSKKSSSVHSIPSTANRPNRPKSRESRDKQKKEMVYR

QFTNVSCTTSKECWSVCQRLHNTSRGKCMNKKCRCYS (natural protein) [Charybdotoxin]
koff [1]: 0.01 s⁻¹ | koff [2]: ~0.01 s⁻¹
